# Molecular target: CK2β^1–193-pAzF coupled to fluorescein (human) (UniProt P67870)
# Assay: MST; B2 titrated (7.6 nM to 125 or 250 µM) to 100 nM fluorophore-labelled CK2α-DBCO-Sulfo-Cy5 or CK2β^1-193-Flu; 50 mM Tris/HCl pH 7.5, 25 mM NaCl, 20 mM MgCl2, Tween-20, DMSO; 37 °C, MST power 60%; Monolith NT.115; three independent measurements
binder,measurement,value
DCRGLIVMIKLH [peptide B2 (free synthetic peptide)],Kd,> 100 µM

# — PMC5374410, “Identification of a Potent Allosteric Inhibitor of Human Protein Kinase CK2 by Bacterial Surface Display Library Screening” (Pharmaceuticals, 2017)
